Data published in article PMC11980842, “MprF from Pseudomonas aeruginosa is a promiscuous lipid scramblase with broad substrate specificity” (Science Advances, 2025).

Key:
[1] = target: T1, Truncated PaMprF construct of residues 1 to 545 (TM region) (Pseudomonas aeruginosa PAO1); assay: pull-down; truncated PaMprF construct of residues 1 to 545 with sybodies; who was held is not told
T1 construct: MprF of Pseudomonas aeruginosa (PAO1), residues 1 to 545, representing the transmembrane region; also called truncated form of PaMprF representing the TM region
T1 chain: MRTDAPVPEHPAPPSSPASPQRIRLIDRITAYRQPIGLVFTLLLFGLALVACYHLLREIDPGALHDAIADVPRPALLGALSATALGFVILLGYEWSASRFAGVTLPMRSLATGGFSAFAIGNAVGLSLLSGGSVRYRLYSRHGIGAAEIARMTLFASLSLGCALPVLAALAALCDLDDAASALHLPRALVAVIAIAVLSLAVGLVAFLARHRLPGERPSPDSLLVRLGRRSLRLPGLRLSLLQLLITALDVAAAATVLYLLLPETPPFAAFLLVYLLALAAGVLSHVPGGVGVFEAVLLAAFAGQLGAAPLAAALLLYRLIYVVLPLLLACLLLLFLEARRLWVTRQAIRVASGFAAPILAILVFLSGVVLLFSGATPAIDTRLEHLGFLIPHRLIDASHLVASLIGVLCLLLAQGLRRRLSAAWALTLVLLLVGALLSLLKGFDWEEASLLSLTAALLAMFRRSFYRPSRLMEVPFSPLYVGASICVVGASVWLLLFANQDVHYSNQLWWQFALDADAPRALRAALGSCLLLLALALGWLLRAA

[2] = target: T2, Multiple peptide resistance factor (MprF) from Pseudomonas aeruginosa, full length (Pseudomonas aeruginosa PAO1); assay: cryo-EM structure; PaMprF in SaposinA-lipid nanoparticles (POPC:POPG 7:3 mol/mol), separated by SEC, mixed with a 1.2x molar excess of Sb29; details: both partners purified
T2 construct: MprF of Pseudomonas aeruginosa, gene cloned from PAO1 genomic DNA into p7XC3H; full length, monomer of 96 kDa; The monomeric SEC fraction was pooled for downstream experiments; also called PaMprF; WT PaMprF; source: E. coli C41, purified (Ni Sepharose, SEC); reconstituted into SaposinA-lipid nanoparticles for cryo-EM
T2 chain: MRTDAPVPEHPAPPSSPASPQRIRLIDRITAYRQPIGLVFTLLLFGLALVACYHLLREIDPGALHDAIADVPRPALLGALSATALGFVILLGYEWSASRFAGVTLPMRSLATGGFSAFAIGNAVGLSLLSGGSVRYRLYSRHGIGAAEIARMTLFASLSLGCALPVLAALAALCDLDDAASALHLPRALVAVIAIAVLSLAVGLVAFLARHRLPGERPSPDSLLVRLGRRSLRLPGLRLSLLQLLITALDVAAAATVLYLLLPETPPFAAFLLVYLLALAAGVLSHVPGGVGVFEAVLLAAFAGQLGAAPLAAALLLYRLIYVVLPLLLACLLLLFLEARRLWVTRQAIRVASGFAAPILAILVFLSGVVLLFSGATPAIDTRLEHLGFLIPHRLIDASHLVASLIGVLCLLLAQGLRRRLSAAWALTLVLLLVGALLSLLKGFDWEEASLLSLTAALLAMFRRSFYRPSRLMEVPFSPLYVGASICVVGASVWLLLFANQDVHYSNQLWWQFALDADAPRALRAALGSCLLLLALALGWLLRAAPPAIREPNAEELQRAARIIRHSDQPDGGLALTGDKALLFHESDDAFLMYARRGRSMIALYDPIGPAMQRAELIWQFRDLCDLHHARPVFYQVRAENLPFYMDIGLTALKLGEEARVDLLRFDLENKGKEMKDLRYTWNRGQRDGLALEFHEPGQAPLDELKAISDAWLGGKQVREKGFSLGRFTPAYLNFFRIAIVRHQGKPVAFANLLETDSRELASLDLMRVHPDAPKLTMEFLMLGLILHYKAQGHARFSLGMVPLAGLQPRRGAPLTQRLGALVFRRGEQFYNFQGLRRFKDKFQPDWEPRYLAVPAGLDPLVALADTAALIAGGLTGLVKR

B1: Sybody 29 (synthetic nanobody against PaMprF) (VHH)
VHH: GVQLVESGGGLVQAGGSLRLSCAASGFPVSSAWMAWYRQAPGKEREWVAAIFSAGQKTRYADSVKGRFTISRDNAKNTVYLQMNSLKPEDTAVYYCNVKDTGHWWDIYDYWGQGTQVTVSA
notes: synthetic nanobody from the loop sybody sublibrary; the structure of its complex with PaMprF was deposited as PDB 9GOE; Selected by one round of ribosome display and two rounds of phage display against biotinylated full-length PaMprF; also called Sb29
Q: Does B1 bind [1]?
A: binds

Q: Does B1 bind [2]?
A: binds
